Experimental findings from patent US20220204580A1 (AstraZeneca / MedImmune, published 2022) are described below.

Numbered stars: 1 amine (or outer) side, 2 acyl side, 3 side chain; on linkers, the order of the positions; unused ones are H or OH. Bridge positions count the residues as written; N and C are the ends. Square brackets hold non-standard residues; d marks the D form. Side chains are listed from the residue outwards. Ends that are not written are not given here. * marks the point of attachment. C18 diacid = O=C(O)CCCCCCCCCCCCCCCCC(=O)*; γGlu = O=C(O)[C@H](CCC(=O)[*:2])N[*:1]; αMeF = C[C@](N)(Cc1ccccc1)C(=O)O; Dab = NCC[C@H](N)C(=O)O; Aib = CC(C)(N)C(=O)O

For assay [1], the target named is T1, human calcitonin receptor (human, UniProt P30988 25-474).
T1 sequence (looked up): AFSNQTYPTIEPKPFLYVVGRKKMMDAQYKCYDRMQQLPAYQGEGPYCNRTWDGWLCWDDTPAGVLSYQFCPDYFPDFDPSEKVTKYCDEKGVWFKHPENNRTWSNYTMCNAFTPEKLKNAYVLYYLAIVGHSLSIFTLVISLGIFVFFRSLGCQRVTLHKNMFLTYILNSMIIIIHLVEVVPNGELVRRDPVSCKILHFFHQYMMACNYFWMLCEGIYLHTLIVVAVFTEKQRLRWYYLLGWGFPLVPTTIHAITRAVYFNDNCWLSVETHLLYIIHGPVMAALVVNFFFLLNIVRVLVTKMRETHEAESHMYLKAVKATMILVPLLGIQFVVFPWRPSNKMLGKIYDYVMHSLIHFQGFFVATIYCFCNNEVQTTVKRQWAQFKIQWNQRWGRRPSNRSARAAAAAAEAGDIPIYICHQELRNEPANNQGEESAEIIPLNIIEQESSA
Description: cell-based or functional assay.

The target in assay [2] is T2, human amylin receptor (calcitonin receptor co-expressed with receptor activity modifying protein, RAMP3) (human, UniProt P30988 25-474; O60896 24-148).
T2 sequence (looked up) 1: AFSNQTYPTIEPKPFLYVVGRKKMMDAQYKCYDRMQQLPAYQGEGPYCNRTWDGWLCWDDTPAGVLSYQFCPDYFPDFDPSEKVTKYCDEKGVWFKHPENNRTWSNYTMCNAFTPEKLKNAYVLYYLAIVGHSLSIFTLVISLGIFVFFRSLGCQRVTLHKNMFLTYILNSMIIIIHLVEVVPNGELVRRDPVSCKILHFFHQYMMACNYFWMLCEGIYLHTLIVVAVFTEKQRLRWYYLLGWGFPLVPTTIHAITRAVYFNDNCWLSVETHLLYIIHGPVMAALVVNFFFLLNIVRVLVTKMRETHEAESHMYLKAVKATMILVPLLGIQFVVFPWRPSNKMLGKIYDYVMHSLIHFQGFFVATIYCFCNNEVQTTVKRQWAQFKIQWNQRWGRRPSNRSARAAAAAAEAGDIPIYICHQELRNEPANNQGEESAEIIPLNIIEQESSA
T2 sequence (looked up) 2: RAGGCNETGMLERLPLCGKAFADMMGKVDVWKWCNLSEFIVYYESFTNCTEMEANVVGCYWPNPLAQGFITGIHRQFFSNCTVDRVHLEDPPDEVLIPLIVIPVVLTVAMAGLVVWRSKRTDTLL
The experiment in a line: cell-based or functional assay.

B1: Peptide 148 (SEQ ID NO: 148) (peptide)
peptide: K([γGlu-C18 diacid])KCNTATCATQRLANFL[Aib]HSSNNFGPILPPTNVGPNTY-NH2
modifications: disulfide 3-8; N-terminus assumed
SMILES: CC[C@H](C)[C@H](NC(=O)[C@@H]1CCCN1C(=O)CNC(=O)[C@H](Cc1ccccc1)NC(=O)[C@H](CC(N)=O)NC(=O)[C@H](CC(N)=O)NC(=O)[C@H](CO)NC(=O)[C@H](CO)NC(=O)[C@H](Cc1c[nH]cn1)NC(=O)C(C)(C)NC(=O)[C@H](CC(C)C)NC(=O)[C@H](Cc1ccccc1)NC(=O)[C@H](CC(N)=O)NC(=O)[C@H](C)NC(=O)[C@H](CC(C)C)NC(=O)[C@H](CCCNC(=N)N)NC(=O)[C@H](CCC(N)=O)NC(=O)[C@@H](NC(=O)[C@H](C)NC(=O)[C@@H]1CSSC[C@H](NC(=O)[C@H](CCCCN)NC(=O)[C@@H](N)CCCCNC(=O)CC[C@H](NC(=O)CCCCCCCCCCCCCCCCC(=O)O)C(=O)O)C(=O)N[C@@H](CC(N)=O)C(=O)N[C@@H]([C@@H](C)O)C(=O)N[C@@H](C)C(=O)N[C@@H]([C@@H](C)O)C(=O)N1)[C@@H](C)O)C(=O)N[C@@H](CC(C)C)C(=O)N1CCC[C@H]1C(=O)N1CCC[C@H]1C(=O)N[C@H](C(=O)N[C@@H](CC(N)=O)C(=O)N[C@H](C(=O)NCC(=O)N1CCC[C@H]1C(=O)N[C@@H](CC(N)=O)C(=O)N[C@H](C(=O)N[C@@H](Cc1ccc(O)cc1)C(N)=O)[C@@H](C)O)C(C)C)[C@@H](C)O
Take B1: the figures for the “EC50 (cAMP production)” value in assay [1] and in assay [2] were 0.728 nM and 0.191 nM, respectively. Besides, the “Ratio (EC50 hCTR / EC50 hAMYR3)” value in assay [2] turned out to be 3.8.

B2: Peptide 151 (SEQ ID NO: 151) (peptide)
peptide: K([γGlu-C18 diacid])CNTATCATQRLANFL[Aib]HSSNNFGPI[dL]PPTNVGSNTY-NH2
modifications: disulfide 2-7; N-terminus assumed
SMILES: CC[C@H](C)[C@H](NC(=O)[C@@H]1CCCN1C(=O)CNC(=O)[C@H](Cc1ccccc1)NC(=O)[C@H](CC(N)=O)NC(=O)[C@H](CC(N)=O)NC(=O)[C@H](CO)NC(=O)[C@H](CO)NC(=O)[C@H](Cc1c[nH]cn1)NC(=O)C(C)(C)NC(=O)[C@H](CC(C)C)NC(=O)[C@H](Cc1ccccc1)NC(=O)[C@H](CC(N)=O)NC(=O)[C@H](C)NC(=O)[C@H](CC(C)C)NC(=O)[C@H](CCCNC(=N)N)NC(=O)[C@H](CCC(N)=O)NC(=O)[C@@H](NC(=O)[C@H](C)NC(=O)[C@@H]1CSSC[C@H](NC(=O)[C@@H](N)CCCCNC(=O)CC[C@H](NC(=O)CCCCCCCCCCCCCCCCC(=O)O)C(=O)O)C(=O)N[C@@H](CC(N)=O)C(=O)N[C@@H]([C@@H](C)O)C(=O)N[C@@H](C)C(=O)N[C@@H]([C@@H](C)O)C(=O)N1)[C@@H](C)O)C(=O)N[C@H](CC(C)C)C(=O)N1CCC[C@H]1C(=O)N1CCC[C@H]1C(=O)N[C@H](C(=O)N[C@@H](CC(N)=O)C(=O)N[C@H](C(=O)NCC(=O)N[C@@H](CO)C(=O)N[C@@H](CC(N)=O)C(=O)N[C@H](C(=O)N[C@@H](Cc1ccc(O)cc1)C(N)=O)[C@@H](C)O)C(C)C)[C@@H](C)O
Regarding B2, in assay [1], the “EC50 (cAMP production)” value was 0.898 nM. Moreover, in assay [2], the “EC50 (cAMP production)” value is 0.061 nM and the “Ratio (EC50 hCTR / EC50 hAMYR3)” value was 14.7.

B3: Peptide 150 (SEQ ID NO: 150) (peptide)
peptide: K([γGlu-C18 diacid])CNTATCATQRLANFL[Aib]HSS[Dab]NFGPILPPTNVGSNTY-NH2
modifications: disulfide 2-7; N-terminus assumed
SMILES: CC[C@H](C)[C@H](NC(=O)[C@@H]1CCCN1C(=O)CNC(=O)[C@H](Cc1ccccc1)NC(=O)[C@H](CC(N)=O)NC(=O)[C@H](CCN)NC(=O)[C@H](CO)NC(=O)[C@H](CO)NC(=O)[C@H](Cc1c[nH]cn1)NC(=O)C(C)(C)NC(=O)[C@H](CC(C)C)NC(=O)[C@H](Cc1ccccc1)NC(=O)[C@H](CC(N)=O)NC(=O)[C@H](C)NC(=O)[C@H](CC(C)C)NC(=O)[C@H](CCCNC(=N)N)NC(=O)[C@H](CCC(N)=O)NC(=O)[C@@H](NC(=O)[C@H](C)NC(=O)[C@@H]1CSSC[C@H](NC(=O)[C@@H](N)CCCCNC(=O)CC[C@H](NC(=O)CCCCCCCCCCCCCCCCC(=O)O)C(=O)O)C(=O)N[C@@H](CC(N)=O)C(=O)N[C@@H]([C@@H](C)O)C(=O)N[C@@H](C)C(=O)N[C@@H]([C@@H](C)O)C(=O)N1)[C@@H](C)O)C(=O)N[C@@H](CC(C)C)C(=O)N1CCC[C@H]1C(=O)N1CCC[C@H]1C(=O)N[C@H](C(=O)N[C@@H](CC(N)=O)C(=O)N[C@H](C(=O)NCC(=O)N[C@@H](CO)C(=O)N[C@@H](CC(N)=O)C(=O)N[C@H](C(=O)N[C@@H](Cc1ccc(O)cc1)C(N)=O)[C@@H](C)O)C(C)C)[C@@H](C)O
In the case of B3, the “EC50 (cAMP production)” value in assay [1] was 4.18 nM. In assay [2], the “EC50 (cAMP production)” value is 0.179 nM and the “Ratio (EC50 hCTR / EC50 hAMYR3)” value amounted to 23.4.

B4: Peptide 16 (SEQ ID NO: 16) (peptide)
peptide: K([γGlu-C18 diacid])CNTATCATQRLANFLRHSSNN[αMeF]GPILPPTEVGSNTY-NH2
modifications: disulfide 2-7; N-terminus assumed
SMILES: CC[C@H](C)[C@H](NC(=O)[C@@H]1CCCN1C(=O)CNC(=O)[C@](C)(Cc1ccccc1)NC(=O)[C@H](CC(N)=O)NC(=O)[C@H](CC(N)=O)NC(=O)[C@H](CO)NC(=O)[C@H](CO)NC(=O)[C@H](Cc1c[nH]cn1)NC(=O)[C@H](CCCNC(=N)N)NC(=O)[C@H](CC(C)C)NC(=O)[C@H](Cc1ccccc1)NC(=O)[C@H](CC(N)=O)NC(=O)[C@H](C)NC(=O)[C@H](CC(C)C)NC(=O)[C@H](CCCNC(=N)N)NC(=O)[C@H](CCC(N)=O)NC(=O)[C@@H](NC(=O)[C@H](C)NC(=O)[C@@H]1CSSC[C@H](NC(=O)[C@@H](N)CCCCNC(=O)CC[C@H](NC(=O)CCCCCCCCCCCCCCCCC(=O)O)C(=O)O)C(=O)N[C@@H](CC(N)=O)C(=O)N[C@@H]([C@@H](C)O)C(=O)N[C@@H](C)C(=O)N[C@@H]([C@@H](C)O)C(=O)N1)[C@@H](C)O)C(=O)N[C@@H](CC(C)C)C(=O)N1CCC[C@H]1C(=O)N1CCC[C@H]1C(=O)N[C@H](C(=O)N[C@@H](CCC(=O)O)C(=O)N[C@H](C(=O)NCC(=O)N[C@@H](CO)C(=O)N[C@@H](CC(N)=O)C(=O)N[C@H](C(=O)N[C@@H](Cc1ccc(O)cc1)C(N)=O)[C@@H](C)O)C(C)C)[C@@H](C)O
As to B4, in assay [1], the “EC50 (cAMP production)” value worked out at 2.02 nM. Besides, in assay [2], the “EC50 (cAMP production)” value came out at 0.221 nM and the “Ratio (EC50 hCTR / EC50 hAMYR3)” value amounted to 9.
